Here are results for one protein from patent US20090074790.

In this data set the target is recombinant GST-Smad2 fusion protein, phosphorylated in vitro by TβR-I kinase, Q15796.
Chain of recombinant GST-Smad2 fusion protein, phosphorylated in vitro by TβR-I kinase, Q15796 (Q15796 whole entry, the tested form may be a part): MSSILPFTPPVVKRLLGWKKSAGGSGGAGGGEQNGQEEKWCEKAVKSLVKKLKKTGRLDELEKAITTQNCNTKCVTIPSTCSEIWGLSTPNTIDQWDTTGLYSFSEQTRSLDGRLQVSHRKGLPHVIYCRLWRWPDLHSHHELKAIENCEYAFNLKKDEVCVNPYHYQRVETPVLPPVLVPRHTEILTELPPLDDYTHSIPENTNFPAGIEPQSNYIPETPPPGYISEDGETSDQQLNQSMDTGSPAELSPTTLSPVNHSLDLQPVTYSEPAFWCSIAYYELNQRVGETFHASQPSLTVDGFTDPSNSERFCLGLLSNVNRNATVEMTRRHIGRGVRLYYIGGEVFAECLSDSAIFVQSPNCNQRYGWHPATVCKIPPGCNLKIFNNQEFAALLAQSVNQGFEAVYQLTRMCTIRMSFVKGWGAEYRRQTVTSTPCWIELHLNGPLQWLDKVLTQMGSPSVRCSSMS

B1: purified recombinant constitutively active TβR-I kinase (protein)
chain: CHNRTVIHHRVPNEEDPSLDRPFISEGTTLKDLIYDMTTSGSGSGLPLLVQRTIARTIVLQESIGKGRFGEVWRGKWRGEEVAVKIFSSREERSWFREAEIYQTVMLRHENILGFIAADNKDNGTWTQLWLVSDYHEHGSLFDYLNRYTVTVEGMIKLALSTASGLAHLHMEIVGTQGKPAIAHRDLKSKNILVKKNGTCCIADLGLAVRHDSATDTIDIAPNHRVGTKRYMAPEVLDDSINMKHFESFKRADIYAMGLVFWEIARRCSIGGIHEDYQLPYYDLVPSDPSVEEMRKVVCEQKLRPNIPNRWQSCEALRVMAKIMRECWYANGAARLTALRIKKTLSQLSQQEGIKM
As to B1, the “in vitro kinase assay, density of the pSmad2 band on Western blot” value is recorded as “a band of approximately 58 kDa, the density of which is proportional to the amount of active enzyme”.
